Results: patent publication US20160137696A1 (Bristol-Myers Squibb, published 2016)
Starred links: 1 amine or outer side, 2 acyl side, 3 side chain; linkers in the order of their positions; H or OH if unused. Positions of bridges follow the written chain, without caps; N, C: chain ends. Non-standard residues stand in square brackets, D forms with d. Groups on a side chain read outwards from the residue. Primed or numbered codes have the meaning given here. No end group written: not given here. *: point of attachment. Pra′ = propargylglycine (built in as LPH), clicked to a 1-substituted triazol-4-yl-alanine, O=C([C@H](Cc1cn([*:3])nn1)N[*:1])[*:2]; X1 = (S)‑3‑carboxy‑3‑(15-carboxypentadecanoylamino)propyl, O=C(O)CCCCCCCCCCCCCCC(=O)N[C@@H](CC*)C(=O)O; Phe(4-OMe) = p-methoxyphenylalanine (O-methyl-L-tyrosine), COc1ccc(C[C@H](N[*:1])C(=O)[*:2])cc1; Pra″ = its azide, alkyne or alkene has reacted where a group follows in round brackets; Pra(4) = propargylglycine, clicked with an azide to give a triazolylalanine residue; X2 = (S)‑3‑carboxy‑3‑palmitamidopropyl, CCCCCCCCCCCCCCCC(=O)N[C@@H](CC*)C(=O)O; Pra(3) = propargylglycine, clicked to an azide to give a triazolyl-alanine; triazole = 1,2,3-triazole formed by click of the Pra alkyne with the azide; Trp(1-CH2CO) = O=C([C@H](Cc1cn(CC(=O)[*:3])c2ccccc12)N[*:1])[*:2]; Phe(3,4,5-F3) = N[C@@H](Cc1cc(F)c(F)c(F)c1)C(=O)O; C18 diacid = O=C(O)CCCCCCCCCCCCCCCCC(=O)*; C16 diacid = O=C(O)CCCCCCCCCCCCCCC(=O)*; γGlu = O=C(O)[C@H](CCC(=O)[*:2])N[*:1]; Aha = [N-]=[N+]=NCC[C@H](N)C(=O)O; Hyp = O=C(O)[C@@H]1C[C@@H](O)CN1; NMeF = CN[C@@H](Cc1ccccc1)C(=O)O; dHyp = O=C(O)[C@H]1C[C@H](O)CN1; NMeNle = CCCC[C@H](NC)C(=O)O; triazole″ = not defined here; Bzt = benzothienylalanine; Pip = O=C(O)[C@@H]1CCCCN1; NMeA = CN[C@@H](C)C(=O)O; Orn = NCCC[C@H](N)C(=O)O; PEG7′ = not defined here; Pra = C#CC[C@H](N)C(=O)O; Dab = NCC[C@H](N)C(=O)O; Dap = NC[C@H](N)C(=O)O

How the values were obtained:
[1] = target: T1, Recombinant Human PD-L1-TVMV-His (human, UniProt Q9NZQ7 19-239); test: HTRF vs PD-1-Ig; C = IC50 0.0003-0.0099 µM
T1 construct: expressed in HEK293T cells; also called PD-L1-His; hPD-L1(19-239)-TVMV-His
Protocol: (§1) Homogenous Time-Resolved Fluorescence (HTRF) Assays of Binding of Soluble PD-1 to Soluble PD-L1. Soluble PD-1 and soluble PD-L1 refers to proteins with carboxyl-end truncations that remove the transmembrane-spanning regions and are fused to heterologous sequences, specifically the Fc portion of the human immunoglobuling G sequence (Ig) or the hexahistidine epitope tag (His). All binding studies were performed in an HTRF assay buffer consisting of dPBS supplemented with 0.1% (w/v) bovine serum albumin and 0.05% (v/v) Tween-20. For the PD-1-Ig/PD-L1-His binding assay, inhibitors were pre-incubated with PD-L1-His (10 nM final) for 15 m in 4 μl of assay buffer, followed by addition of PD-1-Ig (20 nM final) in 1 μl of assay buffer and further incubation for 15 m. PD-L1 fusion proteins from either human, cynomologous macaques, mouse, or other species were used. HTRF detection was achieved using europium crypate-labeled anti-Ig monoclonal antibody (1 nM final) and allophycocyanin (APC) labeled anti-His monoclonal antibody (20 nM final). Antibodies were diluted in HTRF detection buffer and 5 μl was dispensed on top of binding reaction. The reaction was allowed to equilibrate for 30 minutes and signal (665 nm/620 nm ratio) was obtained using an EnVision fluorometer. Additional binding assays were established between PD-I-Ig/PD-L2-His (20 and 5 nM, respectively), CD80-His/PD-L1-Ig (100 and 10 nM, respectively) and CD80-His/CTLA4-Ig (10 and 5 nM, respectively). Binding/competition studies between biotinylated Compound No. 71 and human PD-L1-His were performed as follows. Macrocyclic peptide inhibitors were pre-incubated with PD-L1-His (10 nM final) for 60 minutes in 4 μl of assay buffer followed by addition of biotinylated Compound No. 71 (0.5 nM final) in 1 μl of assay buffer. Binding was allowed to equilibrate for 30 minutes followed by addition of europium crypated labeled Streptavidin (2.5 pM final) and APC-labeled anti-His (20 nM final) in 5 μl of HTRF buffer. The reaction was allowed to equilibrate for 30 m and signal (665 nm/620 nm ratio) was obtained using an EnVision fluorometer.

[2] = target: T1, Recombinant Human PD-L1-TVMV-His; test: HTRF vs PD-1-Ig; B = IC50 0.01-0.099 µM
Protocol: as §1

T1 sequence (Q9NZQ7 other isoform, or with tags, fused parts or gaps limits assumed): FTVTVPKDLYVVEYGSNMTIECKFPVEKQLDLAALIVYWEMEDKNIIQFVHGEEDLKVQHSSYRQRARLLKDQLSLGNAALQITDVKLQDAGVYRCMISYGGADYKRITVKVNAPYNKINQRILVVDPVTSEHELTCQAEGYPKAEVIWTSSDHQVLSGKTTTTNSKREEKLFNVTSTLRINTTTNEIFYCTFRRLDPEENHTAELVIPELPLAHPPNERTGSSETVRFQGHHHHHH

Row | Binder | IC50 [1] [nM] | IC50 [2] [nM]
1 | {CH2CO}-Y[NMeA]NP[Dap]L[Hyp]W[Dab][Trp(1-CH2CO)][NMeNle][NMeNle]LC[Pra]-OH (thioether N-14; SMILES C#CC[C@H](NC(=O)[C@@H]1CSCC(=O)N[C@@H](Cc2ccc(O)cc2)C(=O)N(C)[C@@H](C)C(=O)N[C@@H](CC(N)=O)C(=O)N2CCC[C@H]2C(=O)N[C@@H](CN)C(=O)N[C@@H](CC(C)C)C(=O)N2C[C@H](O)C[C@H]2C(=O)N[C@@H](Cc2c[nH]c3ccccc23)C(=O)N[C@@H](CCN)C(=O)N[C@@H](Cc2cn(CC(=O)O)c3ccccc23)C(=O)N(C)[C@@H](CCCC)C(=O)N(C)[C@@H](CCCC)C(=O)N[C@@H](CC(C)C)C(=O)N1)C(=O)O) [INT-130AF] | 0.3 to 9.9 | –
2 | {CH2CO}-[Phe(3,4,5-F3)][NMeF][NMeNle][dP]DV[NMeF][Orn][dP]WYLCG[Pra′]([triazole-X1]) (thioether N-13) [Example 14073] | – | 10 to 99
3 | {CH2CO}-Y[Pip]NP[Dap]L[Hyp]W[Dab][Trp(1-CH2CO)][NMeNle][NMeNle]ECG[Pra] (thioether N-14 (inferred)) [INT-130AJ] | 0.3 to 9.9 | –
4 | {CH2CO}-Y[NMeA]DPHQ[Hyp]WSW[NMeNle][NMeNle]ECG[Pra′]([triazole-X1]) (thioether N-14) [Example 14068] | – | 10 to 99
5 | {CH2CO}-Y[NMeA]NP[Dap]L[Hyp]W[Dab][Trp(1-CH2CO)][NMeNle][NMeNle]DC[Pra]-OH (thioether N-14 (inferred)) [INT-130AH] | 0.3 to 9.9 | –
6 | {CH2CO}-Y[NMeA]DPHK[Hyp]WK[Trp(1-CH2CO)][NMeNle][NMeNle]ECG[Pra′]([triazole-X1]) (thioether N-14) [Example 14075] | – | 10 to 99
7 | {CH2CO}-[Phe(3,4,5-F3)][NMeF][NMeNle][dHyp]DV[NMeF]D[dP]WYLCG[Pra′]([triazole-X1]) (thioether N-13) [Example 14074] | – | 10 to 99
8 | {CH2CO}-Y[NMeA]DPHQ[Hyp]WSW[NMeNle][NMeNle]ECG[Pra′]([triazole-X1])G (thioether N-14) [Example 14069] | – | 10 to 99
9 | {CH2CO}-Y[NMeA]NP[Dap]L[Hyp]W[Dab][Trp(1-CH2CO)][NMeNle][NMeNle]LCGGG[Pra]-OH (thioether N-14; SMILES C#CC[C@H](NC(=O)CNC(=O)CNC(=O)CNC(=O)[C@@H]1CSCC(=O)N[C@@H](Cc2ccc(O)cc2)C(=O)N(C)[C@@H](C)C(=O)N[C@@H](CC(N)=O)C(=O)N2CCC[C@H]2C(=O)N[C@@H](CN)C(=O)N[C@@H](CC(C)C)C(=O)N2C[C@H](O)C[C@H]2C(=O)N[C@@H](Cc2c[nH]c3ccccc23)C(=O)N[C@@H](CCN)C(=O)N[C@@H](Cc2cn(CC(=O)O)c3ccccc23)C(=O)N(C)[C@@H](CCCC)C(=O)N(C)[C@@H](CCCC)C(=O)N[C@@H](CC(C)C)C(=O)N1)C(=O)O, also called Intermediate 130AB) [INT-130AB] | – | 10 to 99
10 | {CH2CO}-Y[NMeA]NP[Dap]L[Hyp]WS[Trp(1-CH2CO)][NMeNle][NMeNle]LCG[Pra′]([triazole-X2]) (thioether N-14) [Example 14080] | – | 10 to 99
11 | {CH2CO}-Y[Pip]NP[Dap]L[Hyp]W[Dab][Trp(1-CH2CO)][NMeNle][NMeNle]LCG[Pra] (thioether N-14 (inferred)) [INT-130AI] | 0.3 to 9.9 | –
12 | {CH2CO}-Y[NMeA]NP[Dap]L[Hyp]W[Dab][Trp(1-CH2CO)][NMeNle][NMeNle]LCGGG[Pra″]([triazole-PEG7′-γGlu-C18 diacid]) (thioether N-14 (inferred)) [Example 13124] | – | 10 to 99
13 | {CH2CO}-Y[NMeA]DPHK[Hyp]WK[Trp(1-CH2CO)][NMeNle][NMeNle]ECG[Pra′]([triazole-X2]) (thioether N-14) [Example 14079] | – | 10 to 99
14 | {CH2CO}-Y[Pip]NP[DapMe]L[Hyp]W[Dab][Trp(1-CH2CO)][NMeNle][NMeNle]LCG[Pra] (thioether N-14 (inferred)) [INT-130AK] | 0.3 to 9.9 | –
15 | {CH2CO}-Y[NMeA]NP[Dap]L[Hyp]W[Dab][Trp(1-CH2CO)][NMeNle][NMeNle]LCG[Dap]([γGlu-C18 diacid]) (thioether N-14 (inferred)) [Example 13153] | 0.3 to 9.9 | –
16 | {CH2CO}-[Phe(4-OMe)][Pip]NPHQ[Hyp]W[Dab][Trp(1-CH2CO)][NMeNle][NMeNle]LCG[Dap]([γGlu-C18 diacid]) (thioether N-14) [Example 13154] | 0.3 to 9.9 | –
17 | {CH2CO}-Y[NMeA]DPHK[Hyp]WKW[NMeNle][NMeNle]ECG[Pra(3)]([triazole″-2,5,8,11‑tetraoxatridecyl])G (thioether N-14; reading uncertain) [Example 14063] | – | 10 to 99
18 | {CH2CO}-Y[NMeA]NP[Dap]L[Hyp]WS[Trp(1-CH2CO)][NMeNle][NMeNle]LCG[Pra(4)]([triazole-Dab-C16 diacid]) (thioether N-14) [Example 14083] | – | 10 to 99

More lines, now with the values ahead:

Row | IC50 [1] [nM] | IC50 [2] [nM] | Binder
19 | 0.3 to 9.9 | – | {CH2CO}-Y[NMeA]NP[Dap]L[Hyp]WS[Bzt][NMeNle][NMeNle]RCG[Pra] (thioether N-14) [INT-1300A]
20 | 0.3 to 9.9 | – | {CH2CO}-Y[Pip]NP[Dap]L[Hyp]W[Dab][Trp(1-CH2CO)][NMeNle][NMeNle]LCG[Dap]([γGlu-C18 diacid]) (thioether N-14 (inferred)) [Example 13152]
21 | 0.3 to 9.9 | – | {CH2CO}-Y[NMeA]NP[Dap]L[Hyp]WSW[NMeNle][NMeNle]RCG[Pra′]([triazole-X1]) (thioether N-14) [Example 14066]
22 | 0.3 to 9.9 | – | {CH2CO}-Y[NMeA]NP[Dap]L[Hyp]W[Dab][Trp(1-CH2CO)][NMeNle][NMeNle]EC[Pra]-OH (thioether N-14; SMILES C#CC[C@H](NC(=O)[C@@H]1CSCC(=O)N[C@@H](Cc2ccc(O)cc2)C(=O)N(C)[C@@H](C)C(=O)N[C@@H](CC(N)=O)C(=O)N2CCC[C@H]2C(=O)N[C@@H](CN)C(=O)N[C@@H](CC(C)C)C(=O)N2C[C@H](O)C[C@H]2C(=O)N[C@@H](Cc2c[nH]c3ccccc23)C(=O)N[C@@H](CCN)C(=O)N[C@@H](Cc2cn(CC(=O)O)c3ccccc23)C(=O)N(C)[C@@H](CCCC)C(=O)N(C)[C@@H](CCCC)C(=O)N[C@@H](CCC(=O)O)C(=O)N1)C(=O)O) [INT-130AG]
23 | 0.3 to 9.9 | – | FXDPXLPWXWXXLCGE (ClAc-Tyr(4-F)-Pip-Asp-Pro-Dap-Leu-Hyp-Trp-Dab-Trp'-mNle-mNle-Leu-Cys-Gly-((S)-4-(Fmoc-amino)-5-(tert-butoxy)-5-oxopentanoic acid)-[Modified resin 14A], deprotected; Glu joined through its gamma-carboxyl; 14A = ethylenediamine amide of the gamma-carboxyl of Glu N-(17-carboxyheptadecanoyl); cyclised ClAc-Cys) [Example 14123]
24 | – | 10 to 99 | {CH2CO}-Y[NMeA]DPHQ[Hyp]WSW[NMeNle][NMeNle]ECG[Pra(3)]([triazole″-X2])G (thioether N-14; reading uncertain) [Example 14062]
25 | 0.3 to 9.9 | – | {CH2CO}-Y[NMeA]NP[Dap]L[Hyp]WS[Bzt][NMeNle][NMeNle]RCG[Aha] (thioether N-14) [INT-1300B]
26 | 0.3 to 9.9 | – | {CH2CO}-Y[Pip]NP[DapMe]L[Hyp]W[Dab][Trp(1-CH2CO)][NMeNle][NMeNle]ECG[Pra] (thioether N-14 (inferred)) [INT-130AL]
